Measurements published in publication PMC3203581.
Where two headings read alike, the source gives them in different places.

T1: tvMyb2 40-156 (Trichomonas vaginalis, UniProt Q58HP3 40-156)
T1 sequence: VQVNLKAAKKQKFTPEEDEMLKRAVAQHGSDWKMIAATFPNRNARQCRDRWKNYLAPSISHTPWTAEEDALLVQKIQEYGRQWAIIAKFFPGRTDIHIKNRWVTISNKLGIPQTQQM


Experiments:
[1] = target: T1, tvMyb2 40-156; experiment: X-ray crystallography
[2] = target: T1, tvMyb2 40-156; experiment: X-ray crystallography; remark: listed apart in the source

| Binder | binding result [1] | binding result [2] |
| --- | --- | --- |
| MRE-2-13 (dsDNA) DNA 1: CTGTATCGTCTTG DNA 2: CAAGACGATACAG | binds | – |
| MRE-1-12 (dsDNA) DNA 1: ATAACGATATTT DNA 2: AAATATCGTTAT | – | binds |
